Values quoted from earlier work in publication PMC5289555.

Columns and labels:
[1] = target: Hsp90 (Saccharomyces cerevisiae) (UniProt P02829)
[2] = target: Hsp90 zipped construct (Saccharomyces cerevisiae) (UniProt P02829)

Kd [1] [nM]	Kd [2] [nM]	Substance
60		Hsp90 (from UniProt P02829)
	< 0.001	Hsp90 zipped construct (from UniProt P02829)
